2 substances from publication PMC2266626 can be followed below.

Among the targets are YFP-GKC[trunc] (rat); YFP-α1C (α1C[1671]) (UniProt P15381); YFP-GKC (rat); YFP-GKC[ΔPYDVV] (rat).
Holding throughout (test): FRET or BRET

In the case of CFP-NSH3 (domain or fragment), in the test with YFP-GKC[trunc] (rat), the FRET ratio (FR) was determined as 3.7, the K d,EFF (relative dissociation constant) turned out to be 3090 and the effective FRET efficiency (E EFF) turned out to be 15.5%. Also, in the test with YFP-α1C (α1C[1671]), the FRET ratio (FR) was 1.68 and the K d,EFF (relative dissociation constant) amounted to 11700. In the test with YFP-GKC (rat), the FRET ratio (FR) is 2.8, the K d,EFF (relative dissociation constant) worked out at 1870 and the effective FRET efficiency (E EFF) is 10.2%.

For CFP-α1C[I-II loop] (domain or fragment), the results for the FRET ratio (FR) with YFP-GKC[ΔPYDVV] (rat) and with YFP-GKC (rat) were 5.5 and 5.4, respectively. Further, the effective FRET efficiency (E EFF) with YFP-GKC[ΔPYDVV] (rat) worked out at 26.1%; in the test with YFP-GKC (rat) it was 25.6%.
